Reference: publication PMC8528721, “Hop2 interacts with the transcription factor CEBPα and suppresses adipocyte differentiation” (The Journal of Biological Chemistry, 2021)

T1: CEBPδ in nuclear extracts of COS1 cells (UniProt Q00322 1-268)
T1 sequence (looked up): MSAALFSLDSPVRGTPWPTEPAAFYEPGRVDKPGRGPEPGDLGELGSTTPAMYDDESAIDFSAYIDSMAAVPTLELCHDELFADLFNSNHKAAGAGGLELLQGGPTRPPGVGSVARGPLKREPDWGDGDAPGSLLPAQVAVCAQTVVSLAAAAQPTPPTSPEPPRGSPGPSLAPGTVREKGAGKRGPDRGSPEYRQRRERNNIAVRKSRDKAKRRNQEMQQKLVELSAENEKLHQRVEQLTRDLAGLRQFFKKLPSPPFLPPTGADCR

T2: endogenous CEBPβ (CCAAT enhancer binding protein beta) (mouse (endogenous in mouse visceral …, UniProt P28033-1 1-296))
T2 sequence (looked up): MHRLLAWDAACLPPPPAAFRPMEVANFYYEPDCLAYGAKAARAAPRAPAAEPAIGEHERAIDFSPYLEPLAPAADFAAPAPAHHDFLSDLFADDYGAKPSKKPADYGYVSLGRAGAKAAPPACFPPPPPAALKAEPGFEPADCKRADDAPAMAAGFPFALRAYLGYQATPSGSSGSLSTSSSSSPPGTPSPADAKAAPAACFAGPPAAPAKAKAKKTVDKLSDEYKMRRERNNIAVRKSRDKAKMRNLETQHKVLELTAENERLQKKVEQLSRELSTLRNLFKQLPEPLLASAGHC


How the values were obtained:
[1] = biological target: Flag-tagged CEBPα (UniProt P53566 1-359); assay: cell-based or functional assay
[2] = biological target: T1, CEBPδ in nuclear extracts of COS1 cells; assay: cell-based or functional assay
[3] = biological target: T2, endogenous CEBPβ (CCAAT enhancer …); assay: cell-based or functional assay
[4] = biological target: His-CEBPα (UniProt P53566 1-359); assay: EMSA; no Hop2; EMSA: 5 pmol probe, room temperature, 10 min; buffer, salt and pH not given (refs 36, 55); settings: protein: recombinant; tags: His; chain copies: 2; label: 32P; self-annealed, two copies of the strand; 20 bp duplex with 5' overhang 4 nt (GATC) at both ends
Sequence of His-CEBPα (P53566 whole entry): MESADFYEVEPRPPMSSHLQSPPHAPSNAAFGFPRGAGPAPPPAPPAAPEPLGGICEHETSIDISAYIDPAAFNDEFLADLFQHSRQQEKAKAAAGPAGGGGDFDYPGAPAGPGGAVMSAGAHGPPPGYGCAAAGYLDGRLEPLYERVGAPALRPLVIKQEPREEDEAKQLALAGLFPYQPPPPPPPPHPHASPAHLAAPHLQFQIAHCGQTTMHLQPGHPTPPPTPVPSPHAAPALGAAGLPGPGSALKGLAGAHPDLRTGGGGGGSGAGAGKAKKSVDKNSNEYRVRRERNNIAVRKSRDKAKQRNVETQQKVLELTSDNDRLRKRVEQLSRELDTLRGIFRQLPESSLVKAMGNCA

Sequence of Flag-tagged CEBPα (P53566 whole entry): as above

Binder | C3-Luc reporter activity in COS1 cells cotransfected with CEBPα and Hop2 (6.1-fold brought down to 1.6-fold) [1] | Leptin-Luc reporter activity in COS1 cells cotransfected with CEBPα and Hop2 (35.7- to 12.2-fold) [1] | C3-Luc reporter activity in COS1 cells cotransfected with CEBPδ and Hop2 (5.7-fold brought down to 2.2-fold) [2] | Leptin-Luc reporter activity in COS1 cells cotransfected with CEBPδ and Hop2 (31.9- to 1.4-fold) [2] | C3-Luc reporter activity in COS1 cells cotransfected with CEBPβ and Hop2 (4.5-fold brought down to 3.1-fold) [3] | Leptin-Luc reporter activity in COS1 cells cotransfected with CEBPβ and Hop2 (21.0- to 1.7-fold) [3] | binding result [4]
hemagglutinin (HA)-tagged Hop2 (natural protein, UniProt O35047 1-217, looked up) MSKSRAEAAAGAPGIILRYLQEQNRPYSAQDVFGNLQKEHGLGKAAVVKALDQLAQEGKIKEKTYGKQKIYFADQNQFDTVSDADLHGLDASIVALTAKVQSLQQSCRHMEAELKELTSALTTPEMQKEIQELKKECAQYTERLKNIKAATNHVTPEEKEKVYRDRQKYCKEWRKRKRMTTELCDAILEGYPKSKKQFFEEVGIETDEDHNVLLPDP | 74 % suppression | 66 % inhibition | 61 % suppression | 97 % inhibition | 31 % suppression | 92 % inhibition | –
CEBP consensus palindrome probe (dsDNA) DNA 1: GATCTGCAGATTGCGCAATCTGCA DNA 2: GATCTGCAGATTGCGCAATCTGCA | – | – | – | – | – | – | binds
